Laboratory results published in patent US20190391146A1.

B1: bivalent Fab No. 8 (HCVR SEQ ID NO: 5 / LCVR SEQ ID NO: 6) (Fab, V domains shown)
VH: QVQLVQSGAEVKKPGSSVKVSCKASGGTFSGYYISWVRQAPGQGLEWMGGIIPISGRANYAQKFQGRVTITADESTSTAYMELSSLRSEDTAVYYCARSRSYYHFDLWGQGTLVTVSS
VL: DIALTQPASVSGSPGQSITISCTGTSSDVGRYNSVSWYQQHPGKAPKLMIYRVSKRPSGVSNRFSGSKSGNTASLTISGLQAEDEADYYCQSWASLSNVVFGGGTKLTVLG
B2: bivalent Fab No. 6 (HCVR SEQ ID NO: 3 / LCVR SEQ ID NO: 4) (Fab, V domains shown)
VH: EVQLLESGGGLVQPGGSLRLSCAASGFTFRGYYMSWVRQAPGKGLEWVSSISGFSSNTYYADSVKGRFTISRDNSKNTLYLQMNSLRAEDTAVYYCARVRYLAYAFDYWGQGTLVTVSS
VL: DIELTQPPSVSVSPGQTASITCSGDSLPDKRAYWYQQKPGQAPVLVIYGDSHRPSGIPERFSGSNSGNTATLTISGTQAEDEADYYCSSWGSRTWVFGGGTKLTVLG

Molecular target: Mycobacteria modified Low Density Lipoprotein (MtLDL) (human) (UniProt P04114)
Assay: sandwich ELISA, value told of the pair No. 6 with No. 8

Row | Binder | specific signal, fold above native LDL background [fold]
1 | B1 | > 4
2 | B2 | > 4
